According to the supplement of paper PMC10065799, “High-throughput profiling of sequence recognition by tyrosine kinases and SH2 domains using bacterial peptide display” (eLife, 2023):

molecular target: FGFR1 (UniProt P11362); assay: phosphorylation enrichment, bacterial display (enrichment ratio); higher = better substrate or ligand; peptides without Tyr show the background
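Also: 11-residue human phosphosite peptides and single-mutation variants displayed on the E. coli surface, counted by deep sequencing, each peptide's frequency after selection divided by its frequency in the unselected input library; frequency after pTyr selection over input frequency; kinase dosed for 20-30% of maximal phosphorylation in three min.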

Chain of FGFR1 (P11362 whole entry, looked up): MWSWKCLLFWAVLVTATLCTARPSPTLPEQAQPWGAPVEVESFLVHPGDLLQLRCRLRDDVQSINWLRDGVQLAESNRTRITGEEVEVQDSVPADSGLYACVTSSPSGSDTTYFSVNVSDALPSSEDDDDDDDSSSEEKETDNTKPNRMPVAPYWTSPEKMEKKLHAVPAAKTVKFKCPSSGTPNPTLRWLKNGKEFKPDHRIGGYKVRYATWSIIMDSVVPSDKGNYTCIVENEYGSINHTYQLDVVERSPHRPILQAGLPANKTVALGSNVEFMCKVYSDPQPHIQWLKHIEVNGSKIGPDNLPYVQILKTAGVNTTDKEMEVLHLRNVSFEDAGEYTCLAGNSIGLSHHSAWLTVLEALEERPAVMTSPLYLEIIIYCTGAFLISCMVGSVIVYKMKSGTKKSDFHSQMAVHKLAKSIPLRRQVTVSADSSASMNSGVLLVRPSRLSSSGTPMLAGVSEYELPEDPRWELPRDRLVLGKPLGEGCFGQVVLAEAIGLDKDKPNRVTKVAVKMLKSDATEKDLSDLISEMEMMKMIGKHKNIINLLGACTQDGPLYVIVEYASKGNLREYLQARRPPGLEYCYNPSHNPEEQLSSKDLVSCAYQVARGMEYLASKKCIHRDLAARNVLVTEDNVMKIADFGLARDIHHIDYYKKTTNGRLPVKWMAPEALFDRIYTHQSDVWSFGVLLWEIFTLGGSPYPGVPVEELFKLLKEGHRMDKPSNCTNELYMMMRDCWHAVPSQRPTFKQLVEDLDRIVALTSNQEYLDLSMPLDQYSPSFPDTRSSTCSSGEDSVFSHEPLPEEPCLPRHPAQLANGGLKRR

Row | Sequence | phosphorylation enrichment
1 | IFKAAYFGVFD [SLC25A4_Y191_R188K_YF] | 0.529
2 | VVSMNYRVGAL [BCHE_Y174] | 0.524
3 | HIILLYIFLKN [STXBP1_Y411_R406H] | 0.755
4 | RSDEDYLFREE [POR_Y573_YF] | 0.914
5 | SDVSSYLEGQA [GCG_Y110] | 0.456
6 | YDKEYYSVHNK [MET_Y1235] | 4.29
7 | LGQRIYQYIQS [DYRK1B_Y271] | 5.29
8 | SQAPGYSFTAA [CYCS_Y47_G42S_YF] | 0.417
9 | QPGTDYKIFLF [FN1_Y1970_YF] | 1.17
10 | HFMELYDLNRD [BBS2_Y648_R643H_YF] | 0.497
11 | KASRKYYAMKI [AKT3_Y173_G171R] | 0.481
12 | TSHKGYVAFLE [CARD9_Y76_G72S] | 0.477
13 | DTKAFYPEEIS [HSPA1A_Y115_E110D] | 0.482
14 | YLRTGYSIPYG [TGM1_Y370_V372I] | 0.554
15 | DVCKNYTEAKD [ALB_Y343_A344T] | 0.51
16 | ALCHYYKLNII [ETV6_Y402_R399C] | 5.97
17 | SMEGLYSSAQD [CLIC5_Y111_T114A] | 0.522
18 | APSGNYVACGG [GNB1_Y111] | 0.478
19 | ATGGFYSYGGG [KRT24_Y120] | 0.506
20 | GFKVRYATWSI [FGFR1_Y210_YF] | 0.463
21 | FKDGQYWIRGW [ACSF3_Y466_R471W] | 0.609
22 | LKGIRYLTSGL [PIGA_Y82_R77L] | 0.691
23 | MFNPCYGLFEY [NEDD4L_Y680_Y679C] | 0.616
24 | GGQVFYNSEYG [FLT4_Y1333] | 0.376
25 | SSPMKYQQNVS [EGFEM1P_Y160] | 0.334
26 | MNPPPYSQLLS [FGF23_Y154_F157L] | 0.527
27 | SDVCMYRKNTF [SYNE2_Y570_I574T_YF] | 0.497
28 | SGGSSYGSGGG [KRT1_Y532] | 0.411
29 | KKMEVYQSIAD [MYBPC3_Y548_L545M] | 0.719

molecular target: EPHB2 (UniProt P29323); assay: as above
Sequence (P29323 whole entry, looked up): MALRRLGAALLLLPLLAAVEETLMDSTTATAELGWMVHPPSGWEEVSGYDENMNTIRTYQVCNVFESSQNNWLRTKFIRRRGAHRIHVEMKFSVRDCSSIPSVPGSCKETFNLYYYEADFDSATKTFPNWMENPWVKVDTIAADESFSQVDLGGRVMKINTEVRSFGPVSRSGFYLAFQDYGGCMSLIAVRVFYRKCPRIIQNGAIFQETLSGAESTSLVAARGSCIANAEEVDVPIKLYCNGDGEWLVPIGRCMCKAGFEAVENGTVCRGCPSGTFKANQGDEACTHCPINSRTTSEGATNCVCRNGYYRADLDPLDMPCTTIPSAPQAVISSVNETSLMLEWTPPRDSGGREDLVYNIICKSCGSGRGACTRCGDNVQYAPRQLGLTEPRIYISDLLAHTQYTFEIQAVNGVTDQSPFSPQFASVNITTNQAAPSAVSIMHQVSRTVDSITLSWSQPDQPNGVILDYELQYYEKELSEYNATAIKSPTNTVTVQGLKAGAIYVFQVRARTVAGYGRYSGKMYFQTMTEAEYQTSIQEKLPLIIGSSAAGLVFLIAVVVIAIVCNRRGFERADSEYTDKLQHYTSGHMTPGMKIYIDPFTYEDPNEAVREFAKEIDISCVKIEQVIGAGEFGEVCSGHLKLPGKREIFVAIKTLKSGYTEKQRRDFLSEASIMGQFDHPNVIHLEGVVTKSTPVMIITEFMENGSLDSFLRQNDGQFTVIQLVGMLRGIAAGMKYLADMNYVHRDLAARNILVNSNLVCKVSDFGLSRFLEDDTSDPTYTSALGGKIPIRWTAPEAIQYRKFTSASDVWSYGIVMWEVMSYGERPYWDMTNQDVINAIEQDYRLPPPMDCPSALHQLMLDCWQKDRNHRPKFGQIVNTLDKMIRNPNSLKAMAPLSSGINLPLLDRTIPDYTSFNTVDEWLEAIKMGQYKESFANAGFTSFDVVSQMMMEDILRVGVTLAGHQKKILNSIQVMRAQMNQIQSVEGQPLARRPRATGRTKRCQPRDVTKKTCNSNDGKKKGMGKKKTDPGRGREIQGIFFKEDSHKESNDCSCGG

Row | Sequence | phosphorylation enrichment
30 | IFKAAYFGVFD [SLC25A4_Y191_R188K_YF] | 0.524
31 | VVSMNYRVGAL [BCHE_Y174] | 0.445
32 | HIILLYIFLKN [STXBP1_Y411_R406H] | 0.567
33 | RSDEDYLFREE [POR_Y573_YF] | 0.964
34 | SDVSSYLEGQA [GCG_Y110] | 0.76
35 | YDKEYYSVHNK [MET_Y1235] | 0.428
36 | LGQRIYQYIQS [DYRK1B_Y271] | 12.5
37 | SQAPGYSFTAA [CYCS_Y47_G42S_YF] | 0.465
38 | QPGTDYKIFLF [FN1_Y1970_YF] | 0.848
39 | HFMELYDLNRD [BBS2_Y648_R643H_YF] | 0.594
40 | KASRKYYAMKI [AKT3_Y173_G171R] | 0.304
41 | TSHKGYVAFLE [CARD9_Y76_G72S] | 0.404
42 | DTKAFYPEEIS [HSPA1A_Y115_E110D] | 0.579
43 | YLRTGYSIPYG [TGM1_Y370_V372I] | 0.461
44 | DVCKNYTEAKD [ALB_Y343_A344T] | 0.581
45 | ALCHYYKLNII [ETV6_Y402_R399C] | 0.738
46 | SMEGLYSSAQD [CLIC5_Y111_T114A] | 1.8
47 | APSGNYVACGG [GNB1_Y111] | 0.691
48 | ATGGFYSYGGG [KRT24_Y120] | 0.885
49 | GFKVRYATWSI [FGFR1_Y210_YF] | 0.534
50 | FKDGQYWIRGW [ACSF3_Y466_R471W] | 0.624
51 | LKGIRYLTSGL [PIGA_Y82_R77L] | 0.913
52 | MFNPCYGLFEY [NEDD4L_Y680_Y679C] | 0.604
53 | GGQVFYNSEYG [FLT4_Y1333] | 0.442
54 | SSPMKYQQNVS [EGFEM1P_Y160] | 0.352
55 | MNPPPYSQLLS [FGF23_Y154_F157L] | 0.606
56 | SDVCMYRKNTF [SYNE2_Y570_I574T_YF] | 0.534
57 | SGGSSYGSGGG [KRT1_Y532] | 0.396
58 | KKMEVYQSIAD [MYBPC3_Y548_L545M] | 0.627
